The text below walks through data of the supplement of paper PMC6757056.

The chains are these.
B1: library; a variant is named by its letters at N, in order (parent)
chain: GCUGUCACCGAGAAACUGUGAAGUAUAUCUUAAACCUGGGCACUUAAAAGAUAUAUGGAGUUAGUAGUGCAACCUGCUCGGUCUGAUGAGUCCNNNNNNGGACGAAACAGC

± gives the standard deviation of the averaged measurements.

Data set [1] covers variants of B1. Kind of data set: FACS-Seq fitted mean relative fluorescence mCherry/BFP without ligand (log10 relative fluorescence); HEK293T; ligand: cyclic di-GMP (c-di-GMP-II aptamer); higher = higher reporter protein expression. The settings on record: ligand present: no. The essentials:
(§1)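 Enriched HEK293T cells carrying, by lentivirus, an mCherry reporter with the ribozyme switch and an EF1α-BFP marker spent 48 h with or without ligand and were sorted into 6 bins by mCherry/BFP. MiSeq sequencing of PCR-amplified bin genomic DNA gave bin counts. Fluorescence was calculated as the fitted normal mean of those counts. Counts were binned on log10(mCherry/BFP), and means were scaled to five spiked-in control ribozymes.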

Data set [2] covers variants of B1. Kind of data set: normalized RNA/DNA level without ligand (relative to sTRSVctl = 100) (log10 (% of sTRSVctl)); HEK293T; ligand: cyclic di-GMP (c-di-GMP-II aptamer); higher = less ribozyme self-cleavage, higher mRNA level. The settings on record: reporter: mCherry (pCS4076), ligand present: no. In short, it runs like this:
(§2)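 Library plasmids encoding reporter-linked ribozyme switches (mCherry, or eGFP for some folinic acid experiments) were transfected into HEK293T at 4 µg per 6-well well. Ligand, when used, was added 1 h before transfection. Total RNA was extracted with EDTA 72 h later, then reverse-transcribed, amplified, barcoded and sequenced. RNA level was RNA reads over DNA reads, divided by a spiked-in non-cleaving control (or the top 25 sequences), ×100, log10; only sequences with ≥100 DNA reads were kept.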

Data set [3] covers variants of B1. Kind of data set: FACS-Seq fitted mean relative fluorescence mCherry/BFP with ligand (log10 relative fluorescence); HEK293T; ligand: cyclic di-GMP (c-di-GMP-II aptamer); ligand concentration (+) FACS-Seq: 1 mM; higher = higher reporter protein expression. To be noted: ligand present: yes. In short, it runs like this:
as §1

The variants in data set [4] derive from B1. Kind of data set: normalized RNA/DNA level with ligand (relative to sTRSVctl = 100) (log10 (% of sTRSVctl)); HEK293T; ligand: cyclic di-GMP (c-di-GMP-II aptamer); ligand concentration (+) RNA-Seq: 1 mM; higher = less ribozyme self-cleavage, higher mRNA level. The settings on record: reporter: mCherry (pCS4076), ligand present: yes. The essentials: as §2

Take CGUUUA: the “FACS-Seq fitted mean (log10)” value in data set [1] is -0.544 ± 0.037; in data set [3], -0.288 ± 0.098. For the same variant, the “normalized RNA/DNA level without ligand (log10)” value in data set [2] was 1.32 ± 0.077. Further, in data set [4], the “normalized RNA/DNA level with ligand (log10)” value stood at 1.46 ± 0.064.
CGGUAC: the “FACS-Seq fitted mean (log10)” value in data set [1] was -0.413 ± 0.026; in data set [3], -0.0971 ± 0.017. The “normalized RNA/DNA level without ligand (log10)” value in data set [2] turned out to be 1.53 ± 0.13. The “normalized RNA/DNA level with ligand (log10)” value in data set [4] turned out to be 1.72 ± 0.086.
In the case of CGGUAU, the “FACS-Seq fitted mean (log10)” value was -0.696 ± 0.0075 in data set [1] and -0.413 ± 0.0071 in data set [3]. For the same variant, the “normalized RNA/DNA level without ligand (log10)” value in data set [2] worked out at 1.35 ± 0.14. The “normalized RNA/DNA level with ligand (log10)” value in data set [4] is 1.51 ± 0.14.
On to CGGUAA, for which the “FACS-Seq fitted mean (log10)” value in data set [1] is -0.662 ± 0.021; in data set [3], -0.41 ± 0.069. Besides, the “normalized RNA/DNA level without ligand (log10)” value in data set [2] is 1.19 ± 0.052. Also, in data set [4], the “normalized RNA/DNA level with ligand (log10)” value was 1.28 ± 0.087.
As for UGUACC, the “FACS-Seq fitted mean (log10)” value is 0.263 ± 0.21 in data set [1] and 0.4414 ± 0.00076 in data set [3]. The “normalized RNA/DNA level without ligand (log10)” value in data set [2] was determined as 1.79 ± 0.068. The “normalized RNA/DNA level with ligand (log10)” value in data set [4] was determined as 1.9 ± 0.13.
The matching figures for UGUACU: -0.0524 ± 0.051, 0.296 ± 0.04, 1.76 ± 0.05 and 1.87 ± 0.094.
For the variant CGUCUA, the “FACS-Seq fitted mean (log10)” value in data set [1] is -0.152 ± 0.067; in data set [3], 0.127 ± 0.011. Further, in data set [2], the “normalized RNA/DNA level without ligand (log10)” value was found to be 1.26 ± 0.082. Besides, the “normalized RNA/DNA level with ligand (log10)” value in data set [4] was determined as 1.45 ± 0.1.
For the variant CGUCUC, the “FACS-Seq fitted mean (log10)” value was determined as 0.2 ± 0.16 in data set [1] and 0.3267 ± 0.0019 in data set [3]. Further, the “normalized RNA/DNA level without ligand (log10)” value in data set [2] was found to be 1.766 ± 0.015. Also, the “normalized RNA/DNA level with ligand (log10)” value in data set [4] came out at 1.87 ± 0.11.
On to CGUCUU, for which the “FACS-Seq fitted mean (log10)” value was -0.365 ± 0.028 in data set [1] and -0.103 ± 0.064 in data set [3]. In data set [2], the “normalized RNA/DNA level without ligand (log10)” value is 1.49 ± 0.033. For the same variant, the “normalized RNA/DNA level with ligand (log10)” value in data set [4] came out at 1.66 ± 0.12.
On to CGCUAC, for which the “FACS-Seq fitted mean (log10)” value was -0.231 ± 0.14 in data set [1] and 0.045 ± 0.046 in data set [3]. The “normalized RNA/DNA level without ligand (log10)” value in data set [2] was found to be 1.65 ± 0.021. In data set [4], the “normalized RNA/DNA level with ligand (log10)” value came to 1.81 ± 0.11.
For CGCUAU, the “FACS-Seq fitted mean (log10)” value was -1.02 ± 0.037 in data set [1] and -0.866 ± 0.11 in data set [3]. In data set [2], the “normalized RNA/DNA level without ligand (log10)” value was found to be 1.41 ± 0.12. Moreover, the “normalized RNA/DNA level with ligand (log10)” value in data set [4] stood at 1.64 ± 0.094.
Turning to CGCUAA, the figures for the “FACS-Seq fitted mean (log10)” value in data set [1] and in data set [3] were -0.647 ± 0.045 and -0.386 ± 0.093, respectively. Moreover, the “normalized RNA/DNA level without ligand (log10)” value in data set [2] is 1.22 ± 0.066. For the same variant, the “normalized RNA/DNA level with ligand (log10)” value in data set [4] worked out at 1.37 ± 0.059.
Consider UGUAUA, for which the results for the “FACS-Seq fitted mean (log10)” value in data set [1] and in data set [3] were -0.0844 ± 0.055 and 0.221 ± 0.027, respectively. In data set [2], the “normalized RNA/DNA level without ligand (log10)” value was 1.73 ± 0.083. Besides, in data set [4], the “normalized RNA/DNA level with ligand (log10)” value came out at 1.87 ± 0.073.
Take UGGGAA: the “FACS-Seq fitted mean (log10)” value in data set [1] is -0.259 ± 0.11; in data set [3] it was -0.113 ± 0.048. The “normalized RNA/DNA level without ligand (log10)” value in data set [2] was found to be 1.57 ± 0.12. Moreover, in data set [4], the “normalized RNA/DNA level with ligand (log10)” value turned out to be 1.77 ± 0.089.
In the case of AGCGUC, the “FACS-Seq fitted mean (log10)” value is -0.71 ± 0.022 in data set [1] and -0.542 ± 0.044 in data set [3]. The “normalized RNA/DNA level without ligand (log10)” value in data set [2] is 1.78 ± 0.028. In data set [4], the “normalized RNA/DNA level with ligand (log10)” value was 1.9 ± 0.15.
As for AGCGUG, the “FACS-Seq fitted mean (log10)” value in data set [1] is -0.586 ± 0.017; in data set [3], -0.279 ± 0.04. In addition, the “normalized RNA/DNA level without ligand (log10)” value in data set [2] was 1.6 ± 0.017. In addition, the “normalized RNA/DNA level with ligand (log10)” value in data set [4] worked out at 1.78 ± 0.14.
Regarding CGCCAU, the “FACS-Seq fitted mean (log10)” value in data set [1] is -0.339 ± 0.042; in data set [3], -0.0661 ± 0.036. Further, the “normalized RNA/DNA level without ligand (log10)” value in data set [2] worked out at 1.5 ± 0.12. Further, the “normalized RNA/DNA level with ligand (log10)” value in data set [4] turned out to be 1.69 ± 0.078.
For AGUGCA, the results for the “FACS-Seq fitted mean (log10)” value in data set [1] and in data set [3] were -0.382 ± 0.034 and -0.043 ± 0.018, respectively. The “normalized RNA/DNA level without ligand (log10)” value in data set [2] is 1.61 ± 0.046. In data set [4], the “normalized RNA/DNA level with ligand (log10)” value was determined as 1.79 ± 0.096.
